# US20240218024A1, “METHODS AND COMPOSITIONS FOR TREATMENT OF VIRAL INFECTION” (TECHNION RESEARCH & DEVELOPMENT FOUNDATION LIMITED, priority 2021, published 2024)
# Columns and labels:
# [1] = In vitro slncRNA and slncRNA-protein granule formation (fluorescence microscopy); format: physicochemical; conditions: for Poisson parameter λ best fit of condensate fluorescence intensity distribution: slncRNA-only condensates
# [2] = Temporal tracking of individual SRNP granules in vitro (burst analysis); format: physicochemical; conditions: SRNP granules with tdPCP-mCherry, 60 minutes tracking
# Procedure: To test whether the synthetic granules display this characteristic, we tracked the fluorescence intensity of each granule in a given field-of-view for 60 minutes. The brightness of each granule was analyzed at every time point using a customized analysis algorithm (see Supplementary Methods). The resulting signals are either decreasing or increasing in overall intensity, and dispersed within them are sharp variations in brightness, that are also either increasing or decreasing. Next, we employed a statistical threshold which flagged these signal variation events, or “signal bursts”, whose amplitude was determined to not be part of the underlying signal distribution (p-value<1e-3) (See Supplementary Methods for definitions of bursts, algorithm details, and relevant numerical controls). The events were classified as either increasing bursts (green), decreasing bursts (red), or non-classified segments (blue), which are segments where molecular movement cannot be discerned from the noise (FIG. 8A). For each detected burst, its amplitude (A intensity) and duration (A time) were measured, in addition to measuring the time between bursts and the order of their appearance. In FIG. 8B the distributions of amplitudes for all three event types were plotted, obtained from ˜156 signal traces, each gathered from a different granule composed of PCP-14×/MCP-15× and tdPCP-mCherry. We observe a bias towards negative burst or shedding events. Assuming an interpretation that fluorescent burst events correspond to insertion and shedding events of slncRNA-CP complexes into or out of the synthetic granules, the amplitude bias towards negative events is consistent with RNA degradation and lack of transcription within the in vitro suspension, leading to a net shedding of slncRNA molecules out of the granules over time.
# The tracking data, (x,y,t coordinates of the bright spots centroids), together with the raw microscopy images were fed to a custom built Matlab (The Mathworks, Natick, MA) script designed to normalize the relevant spot data. Normalization was carried out as follows: for each bright spot, a 14-pixel wide sub-frame was extracted from the field of view, with the spot at its center. Each pixel in the sub-frame was classified to one of three categories according to its intensity value. […]
# We assume the total fluorescence is comprised of three distinct signal processes: RNP granule fluorescence, background fluorescence and noise. We further assume that background fluorescence is slowly changing, as compared with granule fluorescence which depends on the dynamic and frequent insertion and shedding events occurring in the droplet. […] To identify such shifts in the base-line fluorescence intensity, we use a moving-average filter of 13 points (i.e., 2 minutes) to smooth the data. […]
# [3] = SRNP granules with tdPCP-mCherry
Molecule,Poisson parameter λ best fit of condensate fluorescence intensity distribution [1],"ratio between mean granule fluorescence and mean burst amplitude, red channel (protein) [2]",other results
PCP-4×: class I slncRNA with four PCP binding hairpins (SEQ ID NO: 24) (nucleic acid) GAGAAACGTTTCGACATTATATGGAATGCGAAACACGGAGGATGCGGGAAACATGAAGATCACTCATGTTCGCTTAACCATGGATAGGGATCACCCATGTTGCGGTGGTGCGTCAACCAGAGATTTCATATGGGAAACTCTGGGACACGCTGTATTTATACATGAGGATCACCATGTGTGCTTAAATATGGGTAATTCCAGTTTATATGGAAACGGAATAAGATTAGATATGGTTTAAACGACAATATATGGATTGCGTTTTGGGGCACGCCGTCTGGTTACTGCGATGGGTGGGAGGTAGAGGGATTCTAAGCTTAAGA,0,–,–
PCP-3×: class I slncRNA with three PCP binding hairpins (SEQ ID NO: 23) (nucleic acid) GAGAAACGTTTCGACATTATATGGAATGCGAAACACGGAGGATGCGGGAAACATGAAGATCACTCATGTTCGCTTAACCATGGATAGGGATCACCCATGTTGCGGTGGTGCGTCAACCAGAGATTTCATATGGGAAACTCTGGGACACGCTGTATTTATACATGAGGATCACCATGTGTGCTTAAATATGGGTAATTCCAGTTTATATGGAAACGGA,–,–,"formation of fluorescent condensates, slncRNA only ([1]; 8.5 nM slncRNA, granule forming buffer, 1 hour room temperature): no such structures were detected; median mCherry fluorescence of SRNP granules relative to PCP-14×/MCP-15× granules [1, 3]: half as bright; granule formation / colocalization with tdPCP-mCherry ([1]; slncRNA plus 25 nM tdPCP-mCherry): witnessed in the presence of the protein"
PCP-4×/MCP-4×: class II slncRNA with four PCP binding sites spaced by non-PCP hairpins (SEQ ID NO: 26) (nucleic acid) GAGAAACGTTTCGACATTATATGGAATGCGAAAGTGGAACGTAATGGACATGAAGACGATTACGCTTCACACGGAGGATGCGGGAAACATGAAGATCACCCATGTTCGCTTAACCATGGATAGGGATCACCCATGTTGCGGTGGTGCGTCAACCAGAGATTTCATATGGGAAACTCTGGGACACGCTGTATTTATACATGAGGATCACCATGTGTGCTTAAATATGGGTAAGTTGACCATTAGGCAACTGTAAGATGCTCCGGTTAATTCCAGTTTATATGGAAACGGAATTGATGTACCGTTGAGCAAGAACACGATTACGGTTCTTCGATTAGATATGGTTTAAACGACAATATATGGATTGCGTTTTGGGGCACGCCGTCTGGAGAAGACCATTAGGCTTCTTTACTGCGATGGGTGGGAGGTAGAGGGATTCTCGCGAGAAGAA,–,approximately equal to that of the green channel,–
PCP-14×/MCP-15×: class II slncRNA with fourteen PCP binding sites spaced by hairpins that do not bind PCP (SEQ ID NO: 28) (nucleic acid) GAGAAACGTTTCGACATTATATGGAATGCGAAAGTGGAACGTAATGGACATGAAGACGATTACGCTTCACACGGAGGATGCGGGAAACATGAAGATCACCCATGTTCGCTTAACCATGGATAGGGATCACCCATGTTGCGGTGGTGCGTCAACCAGAGATTTCATATGGGAAACTCTGGGACACGCTGTATTTATACATGAGGATCACCATGTGTGCTTAAATATGGGTAAGTTGACCATTAGGCAACTGTAAGATGCTCCGGTTAATTCCAGTTTATATGGAAACGGAATTGATGTACCGTTGAGCAAGAACACGATTACGGTTCTTCGATTAGATATGGTTTAAACGACAATATATGGATTGCGTTTTGGGGCACGCCGTCTGGAGAAGACCATTAGGCTTCTTTACTGCGACCGCAATAAAAGGAGATTATATGAAATCCCTTTGCGCGCAACCGGGTAGAAGATCACCATTAGGGATCTGTAACTCACGGCGCTATTACGAGTCAATATGGTGACCGTAAAGCTAGGGCATGTGCCAGAAGAGCATTAGCCTTCTCCTTGGTGGGGAAGCGATAAGCACATTATAAGGAATGGCTTAAAGTGGTGCGGCGGGGGACTTGACCATTAGGCAAGTGTGCTAGACCCTGGTCTTTTCGAGAAAATATGGTTTCCGAAAGAACTATACGAAGTGACATGCGAGGATTACCCGCATATGGTGCAAATGGGAGAATTGGAGTAAATATGGTTACCCAATAGGCTAGAGCATGACGGCAGTGAGAATTATCCACTGGTTAGCGGGTTACCGAGATTGCACATTATATGGAATGGCAATTGATTCATGCCGGTCGTTTGTGAGGAGTACCCACAAAATGGGAGGGTGCTATATAACCAGGTTATATGCAACCGGTTAGGCCGTTGTGTTAGTTTAGTTCAGCATTAGCGAACTGTGCAAGACCCGGTGGCTAAGGAGTTTATATGGAAACCCTTAGCCCTCGAGCATGCTAACATGAGGATTACCCATGTGATGGGTTTGAAACGTGCAATTATTTGATATGGCAAAAATTGGGTAGGGCATGGCTGCAGCGTGAGAATTATCCACGCTAGGCTAGAGCATGGCGGTATTGAGTTCGGGTTTGAGATGACCATTAGGCATCTGTGCTAGAGCATGCGAAAACGACATAATATGGTATGCGTTTTGGGGTGCTAGTATACCACATGATGAGCACACATGTATGGGTGGGAGGTAGAGGGATTCTCGCGAGAAGA,3-5,approximately equal to that of the green channel,"median mCherry fluorescence of SRNP granules, brighter than PCP-4×/MCP-4× granules [1, 3]: ~3 times; median mCherry fluorescence of SRNP granules, brighter than PCP-8× granules [1, 3]: > 2 fold; slncRNA and protein concentrations at which puncta like structures were detected ([1]; SRNP granules with tdPCP-mCherry, both components varied over two orders of magnitude): ≥ 100 ng/µL"
PCP-8×: class I slncRNA with eight PCP binding hairpins (SEQ ID NO: 27) (nucleic acid) GAGAAACGTTTCGACATTATATGGAATGCGAAACACGGAGGATGCGGGAAACATGAAGATCACCCATGTTCGCTTAACCATGGATAGGGATCACCCATGTTGCGGTGGTGCGTCAACCAGAGATTTCATATGGGAAACTCTGGGACACGCTGTATTTATACATGAGGATCACCATGTGTGCTTAAATATGGGTAATTCCAGTTTATATGGAAACGGAATTAGGCTAGAGCATGGCGGTATTGAGTTCGGGTTTGAAACGACAATATATGGATTGCGTTTTGGGGCACGCCGTCTGGAAAGGAGATTATATGAAATCCCTTTGCGCGCAACCGGGTAGATACGAGTCAATATGGTGACCGTACCTTGGTGGGGAAGCGATAAGCACATTATAAGGAATGGCTTAGTGCTAGACCCTGGTCTTTTCGAGAAAATATGGTTTCCGAAAATGGGTGGGAGGTAGAGGGATTCTCGCGAGAAGAA,–,~2,–
PCP-3×/MCP-3×: class II slncRNA with three PCP binding sites spaced by non-PCP hairpins (SEQ ID NO: 25) (nucleic acid) GAGAAACGTTTCGACATTATATGGAATGCGAAAGTGGAACGTAATGGACATGAAGACGATTACGCTTCACACGGAGGATGCGGGAAACATGAAGATCACCCACGCTTAACCATGGATAGGGATCACCCATGTTGCGGTGGTGCGTCAACCAGAGATTTCATATGGGAAACTCTGGGACACGCTGTATTTATACATGAGGATCACCATGTGTGCTTAAATATGGGTAAGTTGACCATTAGGCAACTGTAAGATGCTCCGGTTAATTCCAGTTTATATGGAAACGGAATTGATGTACCGTTGAGCAAGAACACGATTACGGTTCTTCGATTAGATATGGGGTGGGAGGTAGAGGGATTCTCGCGAGAAGA,–,approximately equal to that of the green channel,–
